Some results are limits rather than exact numbers.

For orientation: Kd means the concentration at which binding is half-saturated. The low end stands for higher affinity, the high end for lower affinity.

Assay [1] addresses T1, mouse PD-1 (mouse, UniProt Q02242 25-167, limits assumed).
T1 construct: also called mPD-1
T1 sequence (looked up): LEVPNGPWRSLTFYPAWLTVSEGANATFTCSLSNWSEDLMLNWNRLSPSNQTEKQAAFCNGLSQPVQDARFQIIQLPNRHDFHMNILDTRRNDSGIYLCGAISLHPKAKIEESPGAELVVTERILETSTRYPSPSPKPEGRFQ
Put plainly: Kd column of Table 22; same value as PD-L2(WT)-Fc in Table 21.

The target of assay [2] is T1, mouse PD-1. The experiment in a line: affinity in PD-L1-Fc format; N/A indicates non-detectable PD-1 binding.
In assay [3] the target is T2, human PD-1 (human, UniProt Q15116 25-167, limits assumed).
T2 construct: nivolumab is called an anti-human PD-1 antibody; also called hPD-1
Described as above.

Assay [4] concerns the target T1, mouse PD-1. Put plainly: Kd column of Table 22; same value as PD-L1(mut2)-Fc in Table 20.
Assay [5] concerns the target T1, mouse PD-1. The experiment in a line: method not named.
Assay [6] deals with T2, human PD-1. Put plainly: method not named.
For assay [7], the target named is human IL-12 receptor complex (human, UniProt P42701 24-662; Q99665 24-862). The experiment in a line: cell-based or functional assay.
In assay [8] the target is human PD-1 overexpressed on HEK-Blue reporter cells (human, UniProt Q15116 25-288). The experiment in a line: cell-based or functional assay.
Assay [9] deals with T1, mouse PD-1. The experiment in a line: Kd column of Table 22; same value as PD-L2(mut2)-Fc in Table 21.

T2 sequence (Q15116 25-167 limits assumed): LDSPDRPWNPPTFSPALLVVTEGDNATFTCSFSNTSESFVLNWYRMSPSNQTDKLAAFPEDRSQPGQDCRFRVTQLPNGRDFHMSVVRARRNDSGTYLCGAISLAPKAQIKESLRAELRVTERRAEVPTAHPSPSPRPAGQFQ
Sequence of human PD-1 overexpressed on HEK-Blue reporter cells (Q15116 25-288): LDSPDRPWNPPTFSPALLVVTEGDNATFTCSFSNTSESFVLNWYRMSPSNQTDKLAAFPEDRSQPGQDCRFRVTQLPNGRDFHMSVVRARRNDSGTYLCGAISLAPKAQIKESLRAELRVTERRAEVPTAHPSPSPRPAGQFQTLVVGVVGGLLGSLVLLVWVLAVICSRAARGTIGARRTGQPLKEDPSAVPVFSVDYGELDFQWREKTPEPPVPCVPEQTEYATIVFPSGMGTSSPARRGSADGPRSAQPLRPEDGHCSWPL
Sequence of human IL-12 receptor complex (Q99665 24-862, chain 2 of 2, other chains not shown): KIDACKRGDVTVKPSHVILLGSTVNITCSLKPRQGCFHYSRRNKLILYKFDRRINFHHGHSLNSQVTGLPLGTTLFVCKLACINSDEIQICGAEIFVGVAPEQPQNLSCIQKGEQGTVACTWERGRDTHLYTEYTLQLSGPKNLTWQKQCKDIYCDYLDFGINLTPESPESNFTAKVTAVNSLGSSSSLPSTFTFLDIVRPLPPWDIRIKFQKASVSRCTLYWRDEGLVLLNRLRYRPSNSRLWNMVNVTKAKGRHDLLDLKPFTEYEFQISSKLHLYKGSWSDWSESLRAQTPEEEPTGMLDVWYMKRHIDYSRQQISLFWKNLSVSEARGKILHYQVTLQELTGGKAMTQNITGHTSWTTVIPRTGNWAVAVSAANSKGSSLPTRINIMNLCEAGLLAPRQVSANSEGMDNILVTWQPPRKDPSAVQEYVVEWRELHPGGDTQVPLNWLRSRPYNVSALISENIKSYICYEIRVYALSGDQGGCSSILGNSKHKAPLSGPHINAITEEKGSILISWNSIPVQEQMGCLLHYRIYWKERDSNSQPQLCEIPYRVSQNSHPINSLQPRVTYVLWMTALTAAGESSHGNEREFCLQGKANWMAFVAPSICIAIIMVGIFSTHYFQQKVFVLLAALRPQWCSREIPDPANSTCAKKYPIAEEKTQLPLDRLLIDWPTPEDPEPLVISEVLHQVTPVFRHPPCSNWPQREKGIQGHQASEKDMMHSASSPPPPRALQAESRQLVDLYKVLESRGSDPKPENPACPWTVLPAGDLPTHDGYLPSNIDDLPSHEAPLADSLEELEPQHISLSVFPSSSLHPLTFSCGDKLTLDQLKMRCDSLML

B1: IL-12(E59A/F60A)/PD-L2(WT)-Fc (Fc fusion)
chain 1: LFTVTVPKELYIIEHGSNVTLECNFDTGSHVNLGAITASLQKVENDTSPHRERATLLEEQLPLGKASFHIPQVQVRDEGQYQCIIIYGVAWDYKYLTLKVKASYRKINTHILKVPETDEVELTCQATGYPLAEVSWPNVSVPANTSHSRTPEGLYQVTSVLRLKPPPGRNFSCVFWNTHVRELTLASIDLQSQMEPRTHPTGSGIWELKKDVYVVELDWYPDAPGEMVVLTCDTPEEDGITWTLDQSSEVLGSGKTLTIQVKAAGDAGQYTCHKGGEVLSHSLLLLHKKEDGIWSTDILKDQKEPKNKTFLRCEAKNYSGRFTCWWLTTISTDLTFSVKSSRGSSDPQGVTCGAATLSAERVRGDNKEYEYSVECQEDSACPAAEESLPIEVMVDAVHKLKYENYTSSFFIRDIIKPDPPKNLQLKPLKNSRQVEVSWEYPDTWSTPHSYFSLTFCVQVQGKSKREKKDRVFTDKTSATVICRKNASISVRAQDRYYSSSWSEWASVPCSGGGGSGGGGSGGGGSGGGGSGRNLPVATPDPGMFPCLHHSQNLLRAVSNMLQKARQTLEFYPCTSEEIDHEDITKDKTSTVEACLPLELTKNESCLNSRETSFITNGSCLASRKTSFMMALCLSSIYEDLKMYQVEFKTMNAKLLMDPKRQIFLDQNMLAVIDELMQALNFNSETVPQKSSLEEPDFYKTKIKLCILLHAFRIRAVTIDRVMSYLNASDKTHTCPPCPAPEDEGGPSVFLFPPKPKDTLMISRTPEVTCVVVDVSHEDPEVKFNWYVDGVEVHNAKTKPREEQYNSTYRVVSVLTVLHQDWLNGKEYKCKVSNKALPAPIEKTISKAKGQPREPQVYVYPPSREEMTKNQVSLTCLVKGFYPSDIAVEWESNGQPENNYKTTPPVLDEDGSFALVSKLTVDKSRWQQGNVFSCSVMHEALHNHYTQKSLSLSPGK
chain 2: LFTVTVPKELYIIEHGSNVTLECNFDTGSHVNLGAITASLQKVENDTSPHRERATLLEEQLPLGKASFHIPQVQVRDEGQYQCIIIYGVAWDYKYLTLKVKASYRKINTHILKVPETDEVELTCQATGYPLAEVSWPNVSVPANTSHSRTPEGLYQVTSVLRLKPPPGRNFSCVFWNTHVRELTLASIDLQSQMEPRTHPTGSGDKTHTCPPCPAPEKKGGPSVFLFPPKPKDTLMISRTPEVTCVVVDVSHEDPEVKFNWYVDGVEVHNAKTKPREEQYNSTYRVVSVLTVLHQDWLNGKEYKCKVSNKALPAPIEKTISKAKGQPREPQVYVLPPSREEMTKNQVSLLCLVKGFYPSDIAVEWESNGQPENRYMTWPPVLDSDGSFFLYSKLTVDKSRWQQGNVFSCSVMHEALHNHYTQKSLSLSPGK
notes: also called IL-12(E59A/F60A)/PD-L2-Fc immunocytokine; construct #29
Regarding B1, in the assay with mouse PD-1 [1], binding was characterised by a dissociation constant (Kd) of 980 nM.

B2: PD-L1(mut1)-Fc (Fc fusion)
chain 1: FTVTVPKDLYVVEYGSNMTIECKFPVEKQLDLAALIVYWMMEDKNIIQFVHGEEDLKVQHSSYRQRARLLKDQLSLGNAALQITDVKLQDAGVYTCLIAYKGADYKRITVKVNAPYNKINQRILVVDPVTSEHELTCQAEGYPKAEVIWTSSDHQVLSGKTTTTNSKREEKLFNVTSTLRINTTTNEIFYCTFRRLDPEENHTAELVIPELPLAHPPNERDKTHTCPPCPAPEDEGGPSVFLFPPKPKDTLMISRTPEVTCVVVDVSHEDPEVKFNWYVDGVEVHNAKTKPREEQYNSTYRVVSVLTVLHQDWLNGKEYKCKVSNKALPAPIEKTISKAKGQPREPQVYVYPPSREEMTKNQVSLTCLVKGFYPSDIAVEWESNGQPENNYKTTPPVLDEDGSFALVSKLTVDKSRWQQGNVFSCSVMHEALHNHYTQKSLSLSPGK
chain 2: FTVTVPKDLYVVEYGSNMTIECKFPVEKQLDLAALIVYWMMEDKNIIQFVHGEEDLKVQHSSYRQRARLLKDQLSLGNAALQITDVKLQDAGVYTCLIAYKGADYKRITVKVNAPYNKINQRILVVDPVTSEHELTCQAEGYPKAEVIWTSSDHQVLSGKTTTTNSKREEKLFNVTSTLRINTTTNEIFYCTFRRLDPEENHTAELVIPELPLAHPPNERDKTHTCPPCPAPEKKGGPSVFLFPPKPKDTLMISRTPEVTCVVVDVSHEDPEVKFNWYVDGVEVHNAKTKPREEQYNSTYRVVSVLTVLHQDWLNGKEYKCKVSNKALPAPIEKTISKAKGQPREPQVYVLPPSREEMTKNQVSLLCLVKGFYPSDIAVEWESNGQPENRYMTWPPVLDSDGSFFLYSKLTVDKSRWQQGNVFSCSVMHEALHNHYTQKSLSLSPGK
notes: also called E58M/R113T/M115L/S117A/G119K
Turning to B2, the binding result with mouse PD-1 [2] and in the assay with human PD-1 [3] was “no binding” in each case.

B3: IL-12(E59A/F60A)/PD-L1(mut2)-Fc (Fc fusion)
chain 1: FTVTVPKDLYVVEYGSNMTIECKFPVEKQLDLAALQVYWMMEDKNIIQFVHGEEDLKVQHSSYRQRARLLKDQLSLGNAALQITDVKLQDAGVYTCLIAYKGADYKRITVKVNAPYNKINQRILVVDPVTSEHELTCQAEGYPKAEVIWTSSDHQVLSGKTTTTNSKREEKLFNVTSTLRINTTTNEIFYCTFRRLDPEENHTAELVIPELPLAHPPNERGGGGSGGGIWELKKDVYVVELDWYPDAPGEMVVLTCDTPEEDGITWTLDQSSEVLGSGKTLTIQVKAAGDAGQYTCHKGGEVLSHSLLLLHKKEDGIWSTDILKDQKEPKNKTFLRCEAKNYSGRFTCWWLTTISTDLTFSVKSSRGSSDPQGVTCGAATLSAERVRGDNKEYEYSVECQEDSACPAAEESLPIEVMVDAVHKLKYENYTSSFFIRDIIKPDPPKNLQLKPLKNSRQVEVSWEYPDTWSTPHSYFSLTFCVQVQGKSKREKKDRVFTDKTSATVICRKNASISVRAQDRYYSSSWSEWASVPCSGGGGSGGGSGGGGSRNLPVATPDPGMFPCLHHSQNLLRAVSNMLQKARQTLEFYPCTSEEIDHEDITKDKTSTVEACLPLELTKNESCLNSRETSFITNGSCLASRKTSFMMALCLSSIYEDLKMYQVEFKTMNAKLLMDPKRQIFLDQNMLAVIDELMQALNFNSETVPQKSSLEEPDFYKTKIKLCILLHAFRIRAVTIDRVMSYLNASGGGGSGGGDKTHTCPPCPAPEDEGGPSVFLFPPKPKDTLMISRTPEVTCVVVDVSHEDPEVKFNWYVDGVEVHNAKTKPREEQYNSTYRVVSVLTVLHQDWLNGKEYKCKVSNKALPAPIEKTISKAKGQPREPQVYVYPPSREEMTKNQVSLTCLVKGFYPSDIAVEWESNGQPENNYKTTPPVLDEDGSFALVSKLTVDKSRWQQGNVFSCSVMHEALHNHYTQKSLSLSPGK
chain 2: FTVTVPKDLYVVEYGSNMTIECKFPVEKQLDLAALQVYWMMEDKNIIQFVHGEEDLKVQHSSYRQRARLLKDQLSLGNAALQITDVKLQDAGVYTCLIAYKGADYKRITVKVNAPYNKINQRILVVDPVTSEHELTCQAEGYPKAEVIWTSSDHQVLSGKTTTTNSKREEKLFNVTSTLRINTTTNEIFYCTFRRLDPEENHTAELVIPELPLAHPPNERGGGGSGGGDKTHTCPPCPAPEKKGGPSVFLFPPKPKDTLMISRTPEVTCVVVDVSHEDPEVKFNWYVDGVEVHNAKTKPREEQYNSTYRVVSVLTVLHQDWLNGKEYKCKVSNKALPAPIEKTISKAKGQPREPQVYVLPPSREEMTKNQVSLLCLVKGFYPSDIAVEWESNGQPENRYMTWPPVLDSDGSFFLYSKLTVDKSRWQQGNVFSCSVMHEALHNHYTQKSLSLSPGK
notes: also called IL-12(E59A/F60A)/PD-L1(I54Q/E58M/R113T/M115L/S117A/G119K)-Fc
In the case of B3, the values for the Kd in the assay with mouse PD-1 [4], with mouse PD-1 [5] and with human PD-1 [6] were 120 nM, approximately 100 nM and approximately 100 nM, respectively. In addition, the “IL-12 signal transduction, % of rIL-12, HEK-IL-12 cells” value in [7] was less than 0.2%. For the same molecule, the “IL-12 signal transduction, % of rIL-12, HEK-IL-12-PD-1 cells” value in assay [8] was determined as 24%.

B4: IL-12(E59A/F60A)/PD-L2(mut2)-Fc (Fc fusion)
chain 1: LFTVTVPKELYIIEHGSNVTLECNFDTGSHVNLGAITAVLQKVENDTSPHRERATLLEEQLPLGKASFHIPQVQVRDEGQYQCIIIYGVAWDYKYLTLKVKASYRKINTHILKVPETDEVELTCQATGYPLAEVSWPNVSVPANTSHSRTPEGLYQVTSVLRLKPPPGRNFSCVFWNTHVRELTLASIDLQSQMEPRTHPTGGGGSGGGIWELKKDVYVVELDWYPDAPGEMVVLTCDTPEEDGITWTLDQSSEVLGSGKTLTIQVKAAGDAGQYTCHKGGEVLSHSLLLLHKKEDGIWSTDILKDQKEPKNKTFLRCEAKNYSGRFTCWWLTTISTDLTFSVKSSRGSSDPQGVTCGAATLSAERVRGDNKEYEYSVECQEDSACPAAEESLPIEVMVDAVHKLKYENYTSSFFIRDIIKPDPPKNLQLKPLKNSRQVEVSWEYPDTWSTPHSYFSLTFCVQVQGKSKREKKDRVFTDKTSATVICRKNASISVRAQDRYYSSSWSEWASVPCSGGGGSGGGSGGGGSRNLPVATPDPGMFPCLHHSQNLLRAVSNMLQKARQTLEFYPCTSEEIDHEDITKDKTSTVEACLPLELTKNESCLNSRETSFITNGSCLASRKTSFMMALCLSSIYEDLKMYQVEFKTMNAKLLMDPKRQIFLDQNMLAVIDELMQALNFNSETVPQKSSLEEPDFYKTKIKLCILLHAFRIRAVTIDRVMSYLNASGGGGSGGGDKTHTCPPCPAPEDEGGPSVFLFPPKPKDTLMISRTPEVTCVVVDVSHEDPEVKFNWYVDGVEVHNAKTKPREEQYNSTYRVVSVLTVLHQDWLNGKEYKCKVSNKALPAPIEKTISKAKGQPREPQVYVYPPSREEMTKNQVSLTCLVKGFYPSDIAVEWESNGQPENNYKTTPPVLDEDGSFALVSKLTVDKSRWQQGNVFSCSVMHEALHNHYTQKSLSLSPGK
chain 2: LFTVTVPKELYIIEHGSNVTLECNFDTGSHVNLGAITAVLQKVENDTSPHRERATLLEEQLPLGKASFHIPQVQVRDEGQYQCIIIYGVAWDYKYLTLKVKASYRKINTHILKVPETDEVELTCQATGYPLAEVSWPNVSVPANTSHSRTPEGLYQVTSVLRLKPPPGRNFSCVFWNTHVRELTLASIDLQSQMEPRTHPTGGGGSGGGDKTHTCPPCPAPEKKGGPSVFLFPPKPKDTLMISRTPEVTCVVVDVSHEDPEVKFNWYVDGVEVHNAKTKPREEQYNSTYRVVSVLTVLHQDWLNGKEYKCKVSNKALPAPIEKTISKAKGQPREPQVYVLPPSREEMTKNQVSLLCLVKGFYPSDIAVEWESNGQPENRYMTWPPVLDSDGSFFLYSKLTVDKSRWQQGNVFSCSVMHEALHNHYTQKSLSLSPGK
notes: also called IL-12(E59A/F60A)/PD-L2(S58V)-Fc
On to B4, for which the values for the dissociation constant Kd in the assay with mouse PD-1 [9], with mouse PD-1 [5] and in the assay with human PD-1 [6] were 230 nM, approximately 100 nM and approximately 100 nM, respectively.

(Values after patent publication US20230167164A1 (IMMUNOWAKE, published 2023).)
